This is an account of results in patent US20260273042A1.

Where only a bound is given, the exact number is not on record here.

Test [1] has as its target BG505 SOSIP T332N gp140 (soluble trimer) (HIV (strain BG505)). The test is described as follows: SPR, monovalent interaction. (In general: SPR reads the build-up and loss of mass on a sensor chip optically.)
Test [2] concerns the target BG505_SOSIP_D664_MD39_mC (BG505 SOSIP-MD39 or MD39) (HIV (strain BG505)). The test is described as follows: SPR, monovalent interaction.
The target in test [3] is BG505 SOSIP T332N gp140 (soluble trimer) (HIV (strain BG505)). Description: SPR, IgG ligand, trimer analyte [panel A].
Test [4] concerns the target BG505_SOSIP.D664_JS_10mut_mC (SOSIP-10MUT) (HIV (strain BG505)). Description: SPR, IgG ligand, trimer analyte [panel A].
The target of test [5] is BG505_SOSIP.D664_JS_3mut_mC (SOSIP-3MUT) (HIV (strain BG505)). Description: SPR, IgG ligand, trimer analyte [panel A].
Test [6] deals with BG505_SOSIP.D664_JS_5mut_mC (SOSIP-5MUT) (HIV (strain BG505)). The test is described as follows: SPR, IgG ligand, trimer analyte [panel A].
In test [7] the target is MD39-10MUT. Description: SPR, IgG ligand, trimer analyte [panel A].
Test [8] has as its target BG505 SOSIP T332N gp140 (soluble trimer) (HIV (strain BG505)). Description: SPR, IgG ligand, trimer analyte [panel A]. This is another data set of the same source.
Test [9] deals with BG505_SOSIP_D664_MD39_mC (BG505 SOSIP-MD39 or MD39) (HIV (strain BG505)). Description: SPR, IgG ligand, trimer analyte [panel A].
Another test addresses BG505 MD53. The test is described as follows: SPR (ligand and analyte not given).
The target in test [10] is BG505 SOSIP T332N gp140 (soluble trimer) (HIV (strain BG505)). The test is described as follows: SPR (ligand and analyte not given).
In test [11] the target is BG505_SOSIP_D664_MD39_mC (BG505 SOSIP-MD39 or MD39) (HIV (strain BG505)). Description: SPR (ligand and analyte not given).
The target of test [12] is BG505 SOSIP T332N gp140 (soluble trimer) (HIV (strain BG505)). Description: ELISA, His-tagged trimer captured, mAb titrated [panel B]. In general terms: In an ELISA, binding on a coated surface is turned into a signal by an enzyme label.
In test [13] the target is BG505_SOSIP.D664_JS_10mut_mC (SOSIP-10MUT) (HIV (strain BG505)). The test is described as above.
Test [14] has as its target BG505_SOSIP_D664_MD39_mC (BG505 SOSIP-MD39 or MD39) (HIV (strain BG505)). Described as above.
In test [15] the target is BG505 SOSIP MD39 E2p (HIV (strain BG505) fused to Bacillus stearothermophilus E2p). Description: SPR, captured particle, Fab analyte.
For test [16], the target named is BG505_SOSIP_MD39_2JD6 (HIV (strain BG505) fused to Pyrococcus furiosus ferritin). Description: SPR, captured particle, Fab analyte.
The target of test [17] is BG505_SOSIP_D664_MD39_mC (BG505 SOSIP-MD39 or MD39) (HIV (strain BG505)). Description: SPR, trimer ligand, Fab analyte [panel A].
Test [18] deals with BG505_SOSIP.D664_JS_10mut_mC (SOSIP-10MUT) (HIV (strain BG505)). The test is described as follows: SPR, trimer ligand, Fab analyte (1-to-1 fit relatively poor) [panel A].
Test [19] has as its target BG505_SOSIP.D664_JS_3mut_mC (SOSIP-3MUT) (HIV (strain BG505)). The test is described as above.
In test [20] the target is BG505_SOSIP_D664_MD39_mC (BG505 SOSIP-MD39 or MD39) (HIV (strain BG505)). Described as above.
In the next test the target is BG505 MD37. The test is described as follows: SPR (ligand and analyte not given).
The target in another test is BG505 MD39C. The test is described as follows: SPR (ligand and analyte not given).
The target of test [21] is BG505_SOSIP_D664_olio6_mC (HIV (strain BG505)). The test is described as follows: SPR (ligand and analyte not given).
Test [22] has as its target BG505 SOSIP T332N gp140 (soluble trimer) (HIV (strain BG505)). Description: SPR, trimer ligand, Fab analyte [panel A].
Test [23] concerns the target BG505_SOSIP.D664_JS_10mut_mC (SOSIP-10MUT) (HIV (strain BG505)). The test is described as follows: SPR, trimer ligand, Fab analyte [panel A].
Test [24] concerns the target BG505_SOSIP.D664_JS_3mut_mC (SOSIP-3MUT) (HIV (strain BG505)). The test is described as follows: SPR, trimer ligand, Fab analyte [panel A].
Test [25] addresses BG505_SOSIP.D664_JS_5mut_mC (SOSIP-5MUT) (HIV (strain BG505)). Description: SPR, trimer ligand, Fab analyte [panel A].
Test [26] deals with BG505_SOSIP_D664_MD39_mC (BG505 SOSIP-MD39 or MD39) (HIV (strain BG505)). The test is described as follows: SPR, trimer ligand, Fab analyte [panel A]. The source holds these as a separate data set.
The target of test [27] is MD39-10MUT. The test is described as follows: SPR, trimer ligand, Fab analyte [panel A].
Test [28] has as its target CD4 on human CD4+ T cells (human) (UniProt P01730). The test is described as follows: flow cytometry, human CD4+ T cells stained with trimer labelled with two fluorescent probes.
In test [29] the target is BG505_SOSIP_D664_olio6_mC (HIV (strain BG505)). Description: SPR, trimer ligand, Fab analyte [panel A].
For test [30] the target is unchanged. The test is described as follows: SPR, IgG ligand, trimer analyte [panel A].
The target of test [31] is BG505-gp120 9MUTB (7MUT+N135R/Q328M) (HIV (strain BG505)). Description: SPR, monomeric gp120.
Test [32] has as its target BG505_MD39_CP1.2_GRSF7_qLoops1 (HIV (strain BG505)). The test is described as follows: SPR, Fab analyte.

For PGDM1400 (antibody), the equilibrium dissociation constant (Kd) (usually a measure of binding affinity in units of concentration) was 5 nM in [1]; 36 nM in test [2]; 2 nM in test [3]; 1 nM in test [4]; 1 nM in test [5]; 1 nM in [6]. Also, the Kd with MD39-10MUT [7] came out at 6 nM; in test [8], 6 nM; in test [9], 12 nM; with BG505 MD53, 11 nM; in test [10], 6 nM; in test [11], 12 nM. Also, the EC50 (read off the curve) in test [12], in test [13] and in test [14] was 0.04 µg/mL throughout.

PGT151 Fab: the Kd in [15] came to 25 nM; in test [16], 49 nM; in test [17], 11 nM; in test [18], 20 nM; in test [19], 9 nM; in test [20], 11 nM.

Take 3BNC60 (antibody): the Kd with BG505 MD37 was determined as 189 nM; with BG505 MD39C it was 144 nM; in test [11], 121 nM; in test [21] it was 119 nM.

Consider VRC01 (antibody), for which the Kd in test [2] and in test [11] was 124 nM throughout.

Turning to PGT128 (antibody), the Kd in [1] worked out at 8 nM; in test [2], 12 nM; with BG505 MD37, 19 nM; with BG505 MD39C, 14 nM; in test [21] it was 11 nM.

Regarding PGT151 (antibody), the Kd in [2] and in test [11] was 11 nM each time. The EC50 (read off the curve) in test [13] and in test [14] was 0.03 µg/mL each time.

Consider PGT128 Fab, for which the dissociation constant (Kd) in test [15] was determined as 6 nM; in test [16] it was 5 nM; in test [22], 8 nM; in [23], 3 nM; in test [24], 3 nM; in test [25] it was 5 nM. Besides, the Kd in test [26] amounted to 12 nM; with MD39-10MUT [27] it was 3 nM; in test [17], 11 nM.

“BG505 SOSIP T332N gp140 (soluble trimer) (other; other documents disagree on this pair)” displayed a percentage of cells in the double-positive population in [28] of 99.1%.

Take 3BNC60 Fab: the dissociation constant Kd came out at 189 nM in [17] and 119 nM in test [29].

As for PGT145 (antibody), the Kd in test [2] stood at 60 nM; in test [4], 3 nM; in test [5], 3 nM; in test [6], 3 nM; in test [9] it was 20 nM; in [30], 31 nM. The Kd in test [11] amounted to 20 nM; in test [21] it was 31 nM.

For the substance PGT121 (antibody), the Kd in test [31] was 1.5 nM. This counts as single-digit nanomolar.

In the case of PGT145-Fab, the Kd in test [32] is 26 nM; in test [15], 41 nM; in [16] it was 49 nM.

For the substance VRC01-Fab, the equilibrium dissociation constant (Kd) in test [15] is under 1 nM; in [16], under 1 nM; in test [23], 115 nM; in test [24] it was 101 nM; in test [25], 195 nM; in the test with MD39-10MUT [27], 142 nM. The substance also displayed a Kd in [17] of 124 nM.
